This is an account of results in the nanobody polyreactivity screen of Harvey et al. (2022).

This series can be described thus: yeast display, Sf9 membrane polyspecificity reagent, FACS + sequencing; frameworks hold sequencing errors. In a few lines:
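Genes from sorted yeast were amplified by colony PCR, read by MiSeq 2 × 250 sequencing and filtered on CDR length. These cells carried a synthetic nanobody library in Saccharomyces cerevisiae BJ5465 and were sorted by FACS into low and high (top ~1%) gates on anti-HA and streptavidin fluorescence. Polyreactivity is labelled according to the gate of origin.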
Turning to “QVQLVESGGGLVQAGGSLRLSCSASGITFKRYAMGWYRQAPGTERELVAAITISACSTYYADSVKGRFTNSRDIAKNTVYLQMNSLKPEVTAVYYCAAVSYGSWYYYWGQGTHVTVSS”, the “polyreactivity (PSR sort gate)” value was “high polyreactivity”.

“QVQLVESGGGLVQAGGSLRLSCSASGITFTSYAMGWYRQAPGKERELVASIDSDDSTNYADSVKGRFTISLDNAKNTVYLQMNSLKPEDTAVYYCNADYLTVSWSIPEHVTVRLMYYWGQGTQVTVSS”: the “polyreactivity (PSR sort gate)” value is listed as “low polyreactivity”.

In the case of “QVQLVESGGGLVQAGGSLRLSCSASGITFYRYVMGWYRQAPGKERELVAAISRGGGSTYYADSVKGRFTISRDNAKNTVYLQMNSLKPEDTAVYYCAARAWVQGGIGGQSWFDYWGQGTQVTVSS”, the “polyreactivity (PSR sort gate)” value is “high polyreactivity”.

“QVQLVESGGGLVQAGGSLRLSCSASGLIFSSYAMGWYRPAPGKERELVAAISRGGSTNYADSVKGRFTISRDNAKNTVYLQMNSLKPEDTAVYYCNDYSWVNRYDYWGQGTQVTVSA”: the “polyreactivity (PSR sort gate)” value is reported as “high polyreactivity”.

For the sequence “QVQLVESGGGLVQAGGSLRLSCSASGLIFYDYDMGWYRQAPGKERELVAAISNDASTYYADSVKGRFTISRDNGKNTVYFQMNSLKPEDTAVYYCAAEPYVFGLSSKPFWYNYWGQGTQVTVSS”, the “polyreactivity (PSR sort gate)” value is given as “low polyreactivity”.

On to “QVQLVESGGGLVQAGGSLRLSCSASGRIFDKYTMGWYRQAPGKERELVATITRGGVSTYYADSVKGRFTISRDNAKNTVYLQMTSLKPEDTAVYYCNAVWRLRVRYGYWGQGTQVTVSS”, for which the “polyreactivity (PSR sort gate)” value is given as “high polyreactivity”.

For “QVQLVESGGGLVQAGGSLRLSCSASGRIFSLYAMGWYRQAPGKESELVAAITWSSGSTYYADSVKGRFTISRDNAKNTVYLQMNSLKPEDTAVYYCDARVFTLLGYSYEYWGEGTQVTVSS”, the “polyreactivity (PSR sort gate)” value was “low polyreactivity”.

Regarding “QVQLVESGGGLVQAGGSLRLSCSASGRIFVDNALGWYRQAPGKERELVATITSTGSTNYADSEKGRFTISRDNGMNTFYLQMNSLKPEDTAFYYCNADGIMQDYDYWGQVTQVTVSS”, the “polyreactivity (PSR sort gate)” value is “low polyreactivity”.

Consider “QVQLVESGGGLVQAGGSLRLSCSASGRILRQYAMGWSRQAPGKERELVAAITSSGGSTYYADSVKGRFTISRDNAKNTVYLQMNSLKPEDTAVYYCNARLRGAKYDYLGQGTQVTVSS”, for which the “polyreactivity (PSR sort gate)” value is listed as “high polyreactivity”.

Turning to “QVQLVESGGGLVQAGGSLRLSCSASGRTFLGYAMGWYRQPPGKERELVAAISWDGTSTYYADSVKGRFTISRDNAKNNVYLQMNSLKTEDTAVYYCAAQYSYRMDYWGQGTQVTVSS”, the “polyreactivity (PSR sort gate)” value was “low polyreactivity”.

Take “QVQLVESGGGLVQAGGSLRLSCSASGRTFRGNAMGWSRHAPGKEREMVAAITSSGGSTYYADSVKGRFTISRDNAKNNVHLKMNSLKPEDTAVYYCAKTYVVPQYDYDYWGQGTQVTVSS”: the “polyreactivity (PSR sort gate)” value is listed as “low polyreactivity”.

For “QVQLVESGGGLVQAGGSLRLSCSASGRTFRKYAMGWYRQPPGKESELVAAISWSGGSTYYANSVKGRFTISRDNAKNTVYLQMNSLKPEDTAVYYCAAVPVHTGSLYWGFTTGYDYWGQGTQVTVSS”, the “polyreactivity (PSR sort gate)” value was “low polyreactivity”.

Turning to “QVQLVESGGGLVQAGGSLRLSCSASGRTFRSNAMGWYRQAPGKEREFVAAIRSRGGSTYYADSVKGRFTISRDNAKNSVYLQMNSLKPEDTAVYYCADKHGSTSHDSWGQGTQVSVSS”, the “polyreactivity (PSR sort gate)” value is “high polyreactivity”.

“QVQLVESGGGLVQAGGSLRLSCSASGRTFRSYTMGWYRQAPGKERELVAAINRGDRTYADSVKGRFTISRDNAKNTVYLQMNSLKPEDTAVYYCNARYYTHRYDYWGQGTQVTVSS”: the “polyreactivity (PSR sort gate)” value is “high polyreactivity”.

As to “QVQLVESGGGLVQAGGSLRLSCSASGRTFRWYTMGWYRQAPGKEREFVAAITWSGSSTDYADSVKGRFTISRDNAKNTVYFQMNSLKPEDTAVYYCAAENRRRRDDYWGQGTQVTVSS”, the “polyreactivity (PSR sort gate)” value is recorded as “high polyreactivity”.

Regarding “QVQLVESGGGLVQAGGSLRLSCSASGRTFSVYAMGSYRQAPGKERELVAGITSGGSTNYADSVKGRFTISRDNAKNTVYLQMNSLKPEDTAVYYCDAENVYAGFGFVSIVDYWVQGTQVTVSS”, the “polyreactivity (PSR sort gate)” value is “low polyreactivity”.
